The target in experiment [1] is T1, human FcγRIIa type R (R131) extracellular domain with C-terminal His tag (human, UniProt P12318 34-217).
T1 construct: extracellular domain; also called FcγRIIaR; not shown: His tag at the C terminus
T1 sequence (looked up): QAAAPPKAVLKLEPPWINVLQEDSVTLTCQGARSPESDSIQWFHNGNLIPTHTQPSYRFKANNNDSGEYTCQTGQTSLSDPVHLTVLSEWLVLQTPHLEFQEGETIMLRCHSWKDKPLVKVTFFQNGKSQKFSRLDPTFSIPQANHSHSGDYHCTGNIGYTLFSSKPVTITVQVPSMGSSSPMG
The experiment is described as follows: SPR (Biacore), antibody captured, FcγR analyte. On the technique in general: Surface plasmon resonance follows binding to a sensor surface in real time, without labels.

For experiment [2], the target named is T2, human FcγRIIb extracellular domain with C-terminal His tag (human, UniProt P31994 43-217).
T2 construct: extracellular domain; for crystals expressed with kifunensine and trimmed with Endo F1; also called FcγRIIb extracellular region
T2 sequence (looked up): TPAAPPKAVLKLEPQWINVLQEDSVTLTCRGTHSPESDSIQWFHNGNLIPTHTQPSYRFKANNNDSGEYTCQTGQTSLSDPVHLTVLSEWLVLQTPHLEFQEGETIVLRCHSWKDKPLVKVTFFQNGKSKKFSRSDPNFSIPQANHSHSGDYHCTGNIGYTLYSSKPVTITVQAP
The experiment in a line: SPR, Ref. Ex. 25.

The target in experiment [3] is T3, human FcγRIIIa type V extracellular domain with C-terminal His tag (human, UniProt P08637 17-208).
T3 construct: extracellular domain; also called FcγRIIIaV; FcγRIIIa V type
T3 sequence (P08637 17-208 F176V): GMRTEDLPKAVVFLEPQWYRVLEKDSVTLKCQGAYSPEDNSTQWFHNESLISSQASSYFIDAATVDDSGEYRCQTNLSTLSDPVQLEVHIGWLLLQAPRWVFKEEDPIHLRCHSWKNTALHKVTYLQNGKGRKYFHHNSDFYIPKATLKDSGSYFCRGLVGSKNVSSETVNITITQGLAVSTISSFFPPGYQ
The experiment in a line: SPR, Ref. Ex. 25.

Experiment [4] addresses T4, human FcγRIIa type R extracellular domain with C-terminal His tag (human, UniProt P12318 34-217).
T4 construct: extracellular domain; also called FcγRIIaR; FcγRIIa R
T4 sequence (looked up): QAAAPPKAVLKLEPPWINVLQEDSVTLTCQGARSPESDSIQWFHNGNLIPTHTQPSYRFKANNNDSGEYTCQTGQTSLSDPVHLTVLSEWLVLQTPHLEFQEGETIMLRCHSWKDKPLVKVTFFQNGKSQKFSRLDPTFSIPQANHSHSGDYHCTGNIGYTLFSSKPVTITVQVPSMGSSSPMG
The experiment in a line: SPR, Ref. Ex. 25.

Experiment [5] addresses T5, human FcγRIIb extracellular domain with C-terminal His tag (human, UniProt P31994 43-217).
T5 construct: extracellular domain; not shown: His tag at the C terminus
T5 sequence (looked up): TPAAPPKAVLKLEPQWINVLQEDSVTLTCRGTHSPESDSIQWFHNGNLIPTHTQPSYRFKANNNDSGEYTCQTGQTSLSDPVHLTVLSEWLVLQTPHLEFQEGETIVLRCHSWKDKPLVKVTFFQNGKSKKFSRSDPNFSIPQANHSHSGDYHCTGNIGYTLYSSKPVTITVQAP
The experiment in a line: SPR (Biacore), antibody captured, FcγR analyte.

The Kd is the constant that tells how readily two partners part at equilibrium. The low end stands for a tighter complex, the high end for a looser complex.

B1: IL6R-BP474/IL6R-L (antibody, human IgG1, kappa)
heavy: QVQLQESGPGLVKPSETLSLTCAVSGHSISHDHAWSWVRQPPGEGLEWIGFISYSGITNYNPSLQGRVTISRDNSKNTLYLQMNSLRAEDTAVYYCARSLARTTAMDYWGEGTLVTVSSASTKGPSVFPLAPSSKSTSGGTAALGCLVKDYFPEPVTVSWNSGALTSGVHTFPAVLQSSGLYSLSSVVTVPSSSLGTQTYICNVNHKPSNTKVDKKVEPKSCDKTHTCPPCPAPDLLGDDSVFLFPPKPKDTLMISRTPEVTCVVVDVSDEDGEVKFNWYVDGVEVHNAKTKPREEQDNSTYRVVSVLTVLHQDWLNGKEYKCKVSNKALPSSIEKTISKAKGQPREPQVYTLPPSRDELTKNQVSLTCLVKGFYPSDIAVEWESNGQPENNYKTTPPVLDSDGSFFLYSKLTVDKSRWQQGNVFSCSVMHEALHNHYTQESLSLSP
light: not shown
notes: A330S and P331S introduced into IL6R-BP230; copies: 2 + 2
Turning to B1, the Kd in experiment [1] worked out at 3000 nM.

B2: IL6R-PD042/IL6R-L (antibody, human IgG1, kappa)
heavy: QVQLQESGPGLVKPSETLSLTCAVSGHSISHDHAWSWVRQPPGEGLEWIGFISYSGITNYNPSLQGRVTISRDNSKNTLYLQMNSLRAEDTAVYYCARSLARTTAMDYWGEGTLVTVSSASTKGPSVFPLAPSSKSTSGGTAALGCLVKDYFPEPVTVSWNSGALTSGVHTFPAVLQSSGLYSLSSVVTVPSSSLGTQTYICNVNHKPSNTKVDKKVEPKSCDKTHTCPPCPAPEWLGGDSVFLFPPKPKDTLYISRTPEVTCVVVDVSHEDPEVKFNWYVDGVEVHNAKTKPREEQYNSTYRVVSVLTVLHQDWLNGKEYKCKVSNKALPAPIEKTISKAKGQPREPQVYTLPPSRDELTKNQVSLTCLVKGFYPSDIAVEWESNGQPENNYKTTPPVLDSDGSFFLYSKLTVDKSRWQQGNVFSCSVMHEALHYHYTQKSLSLSP
light: not shown
notes: also called P238D/L234W; L234W/P238D; copies: 2 + 2
As for B2, the Kd in experiment [2] was determined as 2000 nM; in experiment [3] it was 37 µM; in experiment [4], 16 µM.

B3: IL6R-PD079/IL6R-L (antibody, human IgG1, kappa)
heavy: QVQLQESGPGLVKPSETLSLTCAVSGHSISHDHAWSWVRQPPGEGLEWIGFISYSGITNYNPSLQGRVTISRDNSKNTLYLQMNSLRAEDTAVYYCARSLARTTAMDYWGEGTLVTVSSASTKGPSVFPLAPSSKSTSGGTAALGCLVKDYFPEPVTVSWNSGALTSGVHTFPAVLQSSGLYSLSSVVTVPSSSLGTQTYICNVNHKPSNTKVDKKVEPKSCDKTHTCPPCPAPELLGADSVFLFPPKPKDTLYISRTPEVTCVVVDVSHEDPEVKFNWYVDGVEVHNAKTKPREEQYNSTYRVVSVLTVLHQDWLNGKEYKCKVSNKALPAPIEKTISKAKGQPREPQVYTLPPSRDELTKNQVSLTCLVKGFYPSDIAVEWESNGQPENNYKTTPPVLDSDGSFFLYSKLTVDKSRWQQGNVFSCSVMHEALHYHYTQKSLSLSP
light: not shown
notes: also called P238D/G237A; G237A/P238D; copies: 2 + 2
Take B3: the Kd in experiment [2] amounted to 3000 nM; in experiment [3], 37 µM; in experiment [4], 32 µM.

B4: IL6R-PD080/IL6R-L (antibody, human IgG1, kappa)
heavy: QVQLQESGPGLVKPSETLSLTCAVSGHSISHDHAWSWVRQPPGEGLEWIGFISYSGITNYNPSLQGRVTISRDNSKNTLYLQMNSLRAEDTAVYYCARSLARTTAMDYWGEGTLVTVSSASTKGPSVFPLAPSSKSTSGGTAALGCLVKDYFPEPVTVSWNSGALTSGVHTFPAVLQSSGLYSLSSVVTVPSSSLGTQTYICNVNHKPSNTKVDKKVEPKSCDKTHTCPPCPAPELLGDDSVFLFPPKPKDTLYISRTPEVTCVVVDVSHEDPEVKFNWYVDGVEVHNAKTKPREEQYNSTYRVVSVLTVLHQDWLNGKEYKCKVSNKALPAPIEKTISKAKGQPREPQVYTLPPSRDELTKNQVSLTCLVKGFYPSDIAVEWESNGQPENNYKTTPPVLDSDGSFFLYSKLTVDKSRWQQGNVFSCSVMHEALHYHYTQKSLSLSP
light: not shown
notes: also called P238D/G237D; G237D/P238D; copies: 2 + 2
With B4, the values for the Kd in experiment [2], in experiment [3] and in experiment [4] were 2000 nM, 43 µM and 21 µM, respectively.

B5: IL6R-BP239/IL6R-L (antibody, human IgG1, kappa)
heavy: QVQLQESGPGLVKPSETLSLTCAVSGHSISHDHAWSWVRQPPGEGLEWIGFISYSGITNYNPSLQGRVTISRDNSKNTLYLQMNSLRAEDTAVYYCARSLARTTAMDYWGEGTLVTVSSASTKGPSVFPLAPSSKSTSGGTAALGCLVKDYFPEPVTVSWNSGALTSGVHTFPAVLQSSGLYSLSSVVTVPSSSLGTQTYICNVNHKPSNTKVDKKVEPKSCDKTHTCPPCPAPDYLGDDSVFLFPPKPKDTLMISRTPEVTCVVVDVQDEDGEVKFNWYVDGVEVHNAKTKPREEQDNSTYRVVSVLTVLHQDWLNGKEYKCKVSNAALPRPIEKTISKAKGQPREPQVYTLPPSRDELTKNQVSLTCLVKGFYPSDIAVEWESNGQPENNYKTTPPVLDSDGSFFLYSKLTVDKSRWQQGNVFSCSVMHEALHNHYTQESLSLSP
light: not shown
notes: copies: 2 + 2
Take B5: in experiment [5], the dissociation constant Kd came out at 60 nM.
